Reference: PMC6941229

Molecular target: SBP-Asi2 (S. cerevisiae) (UniProt P53895)
UniProt P53895, sequence (P53895 whole entry): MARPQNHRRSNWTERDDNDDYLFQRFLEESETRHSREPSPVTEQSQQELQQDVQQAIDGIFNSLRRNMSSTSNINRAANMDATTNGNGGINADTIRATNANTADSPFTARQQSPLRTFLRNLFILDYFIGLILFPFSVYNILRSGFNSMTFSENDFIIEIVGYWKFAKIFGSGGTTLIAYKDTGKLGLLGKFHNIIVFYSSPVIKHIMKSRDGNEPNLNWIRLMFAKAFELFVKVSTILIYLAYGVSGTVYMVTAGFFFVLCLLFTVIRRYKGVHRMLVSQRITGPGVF

TM68-MBP, sequence (P10614 1-68): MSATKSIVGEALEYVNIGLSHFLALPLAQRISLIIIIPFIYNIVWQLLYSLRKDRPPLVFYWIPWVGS

TM68-MBP (from UniProt P10614 1-68) (domain or fragment)
ubiquitination of TM68-MBP in proteoliposomes with only the Asi1/Asi3 subcomplex (no Asi2), against proteoliposomes with the entire Asi complex; Ubi Mix, 60 min: 28%
